Residue numbers refer to the chain shown, from its start. One block for each molecule: values may come before it.
Biological target: T1, rhGRP94 CTD fragment (part 4, Glu 602-Glu 799) (Homo sapiens, UniProt P14625)
T1 construct: Part; 4 (Glu 602-Glu 799) of the human GRP94 gene (Gene ID: 7184); made in house; host or cells: Expi293 expression system (pcDNA 3.4)
Test: Epitope comparison ELISA, rhGRP94 fragment part 4
Format: binding
Settings: antibody 1 μg/mL, 100 ng fragment
Description: To determine which portion (or domain) of the GRP94 protein is bound by the developed antibodies, GRP94 fragments part. 1 and part. 4 were constructed wherein part. 1 was composed of the N-terminal domain (NTD), the Ca^2+ binding domain, the middle domain (MD), and the C-terminal domain (CTD) while part. 4 was derived from part. 1 by cutting off the NTD, the Ca^2+ binding domain, and the MD. In brief, Part. 1 (Asp 22-Glu 799) and Part. 4 (Glu 602-Glu 799) of the human GRP94 gene (Gene ID: 7184) were synthesized and subcloned into pcDNA 3.4 (Invitrogen) mammalian expression vector to finally recombinant DNAs. Using the Expi293 expression system (Invitrogen), the proteins were expressed and purified. The purified antigens part. 1 and part. 4 were analyzed for molecular weight by SDS-PAGE.
Next, ELISA was carried out to examine whether the four antibodies of the present disclosure bind to part 1 and part 4. First, 100 ng of each of the rhGRP94 fragment parts 1 and 4 was fixed to a high binding plate by incubation at 4° C. for 14 hours (overnight binding, 14 hrs). The same amount of BSA was used as a negative control. Then, the plate was blocked with 3% BSA, followed by incubation at 37° C. for 2 hours with 100 μL containing each of the anti-GRP94 antibodies (B5, E5, 2H5, and 3G7) of the present disclosure at a density of 1 μg/mL. After three rounds of washing with PBS-T, the plate was treated at 37° C. for 1 hour with a 5000:1 dilution of anti-Fc-HRP (Catalog #31423 Invitrogen). Color development was induced using 1-step-ultra TMB (Invitrogen) for 10 minutes and then terminated with […] (2N). Absorbance at 450 nm was read.

T1 sequence (P14625 602-799): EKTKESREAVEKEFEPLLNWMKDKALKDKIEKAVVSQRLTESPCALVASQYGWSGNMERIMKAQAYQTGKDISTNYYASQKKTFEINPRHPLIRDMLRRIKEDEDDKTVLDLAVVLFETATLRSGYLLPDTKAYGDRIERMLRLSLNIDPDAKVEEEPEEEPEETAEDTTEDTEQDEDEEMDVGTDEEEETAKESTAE

binding to part 4 (Glu 602-Glu 799): did not bind
B1: B5: anti-GRP94 human IgG antibody; CDRs SEQ ID NOS: 1 to 6, VH SEQ ID NO: 7, VL SEQ ID NO: 8 (antibody, V domains shown)
VH: EVQLLESGGGLVQPGGSLRLSCAASGFTFSNYYMSWVRQAPGKGLEWVSGIYPNSGSTYYADSVKGRFTISRDNSKNTLYLQMNSLRAEDTAVYYCARDPLHPARFPFDYWGQGTLVTVSS
VL: QSVLTQPPSASGTPGQRVTISCTGSSSNIGNNAVSWYQQLPGTAPKLLIYADSHRPSGVPDRFSGSKSGTSASLAISGLRSEDEADYYCGAWDASLNAYVFGGGTKLTVL
modifications: Amino acid sequence of heavy chain variable of GRP94 B5; Amino acid sequence of light chain variable of GRP94 B5

binding to part 4 (Glu 602-Glu 799): did not bind
B2: E5: anti-GRP94 human IgG antibody; CDRs SEQ ID NOS: 9 to 14, VH SEQ ID NO: 15, VL SEQ ID NO: 16 (antibody, V domains shown)
VH: EVQLLESGGGLVQPGGSLRLSCAASGFTFSNYAMSWVRQAPGKGLEWVSGISSSSGSTYYADSVKGRFTTSRDNSKNTLYLQMNSLRAEDTAVYYCARDRHPFSPNWFDYWGQGTLVTVSS
VL: B1 VL with T23S, S26P, N31S, A33T, S35T, G90A, A91S, A94D, A98G
modifications: Amino acid sequence of heavy chain variable of GRP94 E5; Amino acid sequence of light chain variable of GRP94 E5

binding to part 4 (Glu 602-Glu 799): did not bind
B3: 3G7: anti-GRP94 human IgG antibody; CDRs SEQ ID NOS: 25 to 30, VH SEQ ID NO: 31, VL SEQ ID NO: 32 (antibody, V domains shown)
VH: EVQLLESGGGLVQPGGSLRLSCAASGFTFSNYSMSWVRQAPGKGLEWVSGIYYGSGNKYYADSVKGRFTISRDNSKNTLYLQMNSLRAEDTAVYYCAKNLASFDYWGQGTLVTVSS
VL: B1 VL with T23S, N31S, A33S, S35N, A51S, D52N, A91T, A94S, N97S, A98G
modifications: Amino acid sequence of heavy chain variable of GRP94 3G7; Amino acid sequence of light chain variable of GRP94 3G7

From US12448436B2, “Antibody specifically binding to GRP94 or antigen-binding fragment thereof, and uses thereof” (KOOKMIN UNIVERSITY INDUSTRY ACADEMY COOPERATION FOUNDATION, priority 2020, dated 2025)
